Biological target: B-cell activating factor receptor (BAFF-R) (human) (UniProt Q96RJ3)
Assay: receptor occupancy in patients with CLL given VAY736 i.v. with ibrutinib (clinical study CVAY736Y2102); method not stated

B1: ianalumab (antibody, human IgG1, kappa, V domains shown)
VH: QVQLQQSGPGLVKPSQTLSLTCAISGDSVSSNSAAWGWIRQSPGRGLEWLGRIYYRSKWYNSYAVSVKSRITINPDTSKNQFSLQLNSVTPEDTAVYYCARYDWVPKIGVFDSWGQGTLVTVSS
VL: DIVLTQSPATLSLSPGERATLSCRASQFISSSYLSWYQQKPGQAPRLLIYGSSSRATGVPARFSGSGSGTDFTLTISSLEPEDFAVYYCQQLYSSPMTFGQGTKVEIKR
- tissue receptor occupancy: > 99%

— patent US20230279132A1, “TREATMENT OF B CELL MALIGNANCIES” (NOVARTIS AG, priority 2020, published 2023)
